B1: Table S2 A row 426 (dsDNA)
DNA 1: GCCGGAAGCCACGCAGGGCCACGTCTGCGGTTCTGA
DNA 2: TCAGAACCGCAGACGTGGCCCTGCGTGGCTTCCGGC
B2: Table S2 A row 1553 (dsDNA)
DNA 1: GAAGGAAGTGGAGACAGTAAGGGGAAACCACAAACC
DNA 2: GGTTTGTGGTTTCCCCTTACTGTCTCCACTTCCTTC
B3: Table S2 A row 1272 (dsDNA)
DNA 1: TTGAATATGAAAGGAAGTGGTTAGGTGATGTGTTCT
DNA 2: AGAACACATCACCTAACCACTTCCTTTCATATTCAA
B4: Table S2 A row 145 (dsDNA)
DNA 1: TGGGGAACGCTGCGGATGCTGCGGTAAACCATGCGA
DNA 2: TCGCATGGTTTACCGCAGCATCCGCAGCGTTCCCCA
B5: Table S2 A row 505 (dsDNA)
DNA 1: ACCCAGTAGGGGCCAGGATGTGGTGAAAAGAGAATT
DNA 2: AATTCTCTTTTCACCACATCCTGGCCCCTACTGGGT
B6: Table S2 A row 1225 (dsDNA)
DNA 1: GCTAGACAGGAAACAGTGAGCTTCTGTGGGCAGGAG
DNA 2: CTCCTGCCCACAGAAGCTCACTGTTTCCTGTCTAGC
B7: Table S2 A row 1073 (dsDNA)
DNA 1: ACCTTGCCTAGAGGAAGTGGTTTTTCGAATCTGAGT
DNA 2: ACTCAGATTCGAAAAACCACTTCCTCTAGGCAAGGT
B8: Table S2 A row 1756 (dsDNA)
DNA 1: GCCAACAGGAAGCTGGAAGCCAACCGCACTGTGTGC
DNA 2: GCACACAGTGCGGTTGGCTTCCAGCTTCCTGTTGGC
B9: Table S2 A row 585 (dsDNA)
DNA 1: TGTATGAAAAAAACAGGAAACCACAGAGAACTGAGG
DNA 2: CCTCAGTTCTCTGTGGTTTCCTGTTTTTTTCATACA
B10: Table S2 A row 238 (dsDNA)
DNA 1: GCGCGGACAGAGAAAGGATGTGGTATAGCAGAAAGT
DNA 2: ACTTTCTGCTATACCACATCCTTTCTCTGTCCGCGC
B11: Table S2 A row 1124 (dsDNA)
DNA 1: ATCTTTTGATGAGGATGTGGTTTCCAGGCAGGTGCT
DNA 2: AGCACCTGCCTGGAAACCACATCCTCATCAAAAGAT
B12: Table S2 A row 1154 (dsDNA)
DNA 1: GGCCTCGGCCACATCCGGGTTCCACCGCAGATTCGG
DNA 2: CCGAATCTGCGGTGGAACCCGGATGTGGCCGAGGCC
B13: Table S2 A row 233 (dsDNA)
DNA 1: TCCTATATACTTCCGTTTGCCTCGCGGTTTCTTTCT
DNA 2: AGAAAGAAACCGCGAGGCAAACGGAAGTATATAGGA
B14: Table S2 A row 163 (dsDNA)
DNA 1: GATTGTTATGTCCGGAAACCGCTTATCAGAGCCCTG
DNA 2: CAGGGCTCTGATAAGCGGTTTCCGGACATAACAATC
B15: Table S2 A row 1723 (dsDNA)
DNA 1: CAACCCGGAAGCACTAACGGAGAAACCGCAACTCGG
DNA 2: CCGAGTTGCGGTTTCTCCGTTAGTGCTTCCGGGTTG
B16: Table S2 A row 442 (dsDNA)
DNA 1: GGAAAAGGAAGTGGCTTTGACTTGCGGGCAGGGAGA
DNA 2: TCTCCCTGCCCGCAAGTCAAAGCCACTTCCTTTTCC
B17: Table S2 A row 485 (dsDNA)
DNA 1: TGAAGTACTAGTCAAGGATGTGGTTTTACATAGCAG
DNA 2: CTGCTATGTAAAACCACATCCTTGACTAGTACTTCA
B18: Table S2 A row 717 (dsDNA)
DNA 1: GGACAGGAAGTTCCTGCAGCTTCTACCACAAACCTA
DNA 2: TAGGTTTGTGGTAGAAGCTGCAGGAACTTCCTGTCC
B19: Table S2 A row 1035 (dsDNA)
DNA 1: AGTTGGTTCCTTCCGGTGGGTTTGTGGGTTTGGGGT
DNA 2: ACCCCAAACCCACAAACCCACCGGAAGGAACCAACT
B20: Table S2 A row 877 (dsDNA)
DNA 1: GAGTGGGCGGAAATCCGTGCCTGGCAGACCACAAAG
DNA 2: CTTTGTGGTCTGCCAGGCACGGATTTCCGCCCACTC
B21: Table S2 A row 995 (dsDNA)
DNA 1: GCGCCCTCCAGGAAACGCCGCGGTTTACTGTCTGCC
DNA 2: GGCAGACAGTAAACCGCGGCGTTTCCTGGAGGGCGC
B22: Table S2 A row 1092 (dsDNA)
DNA 1: CTCACAGAGCAAGTAGGATGTGGTTTCCAGGGGCTG
DNA 2: CAGCCCCTGGAAACCACATCCTACTTGCTCTGTGAG
B23: Table S2 A row 733 (dsDNA)
DNA 1: CAGTGAACAGTTTCCTGTTCCTGTGGTTTTGACTTT
DNA 2: AAAGTCAAAACCACAGGAACAGGAAACTGTTCACTG
B24: Table S2 A row 1339 (dsDNA)
DNA 1: GTAGGGAAGACGGGATGTGGGTTTTCAGCCGTGGCC
DNA 2: GGCCACGGCTGAAAACCCACATCCCGTCTTCCCTAC
B25: Table S2 A row 189 (dsDNA)
DNA 1: TGGCAGAGCACATCCTGTGCGGTTTTCAGTTTTGCT
DNA 2: AGCAAAACTGAAAACCGCACAGGATGTGCTCTGCCA
B26: Table S2 A row 1325 (dsDNA)
DNA 1: GGACCGGTGTCTGGCGGATGCGGTCGTGAAGATAGG
DNA 2: CCTATCTTCACGACCGCATCCGCCAGACACCGGTCC
B27: Table S2 A row 860 (dsDNA)
DNA 1: CTGAGCCGGATGTTACTGGTTAGTGGTTTTCTTTAT
DNA 2: ATAAAGAAAACCACTAACCAGTAACATCCGGCTCAG
B28: Table S2 A row 34 (dsDNA)
DNA 1: GGAGGTGGGGAGGAAGTTCTGAAACCACACACATTT
DNA 2: AAATGTGTGTGGTTTCAGAACTTCCTCCCCACCTCC
B29: Table S2 A row 1719 (dsDNA)
DNA 1: GCCACACTTCCGGCGGGGCTGCGACCGCAGAGGGGC
DNA 2: GCCCCTCTGCGGTCGCAGCCCCGCCGGAAGTGTGGC
B30: Table S2 A row 777 (dsDNA)
DNA 1: CAGGAGCAGTGTAGAGGAAGTGGTTTCCATCACGGA
DNA 2: TCCGTGATGGAAACCACTTCCTCTACACTGCTCCTG
B31: Table S2 A row 1400 (dsDNA)
DNA 1: AGCTGCATTTCCGGGCAGGCAATGAAACCACAGAGT
DNA 2: ACTCTGTGGTTTCATTGCCTGCCCGGAAATGCAGCT
B32: Table S2 A row 414 (dsDNA)
DNA 1: CGCCGAACTTCCGGCAGTAAATTCCGTGGTTTCCCT
DNA 2: AGGGAAACCACGGAATTTACTGCCGGAAGTTCGGCG
B33: Table S2 A row 122 (dsDNA)
DNA 1: GAGAAACAGGAAGAGGGGTGGTGGTTACGGAACACG
DNA 2: CGTGTTCCGTAACCACCACCCCTCTTCCTGTTTCTC
B34: Table S2 A row 1300 (dsDNA)
DNA 1: CAAGTAATCTGCTCAGGAAGTGGTTTGAATAGAGGA
DNA 2: TCCTCTATTCAAACCACTTCCTGAGCAGATTACTTG
B35: Table S2 A row 1378 (dsDNA)
DNA 1: CAAGAGAAAGGAAGTGGAAGCTCTTGTGGTCTGGAA
DNA 2: TTCCAGACCACAAGAGCTTCCACTTCCTTTCTCTTG
B36: Table S2 A row 813 (dsDNA)
DNA 1: AAGTTGATTTCCGGGTAGTCTGTGGTTTCCTAATCA
DNA 2: TGATTAGGAAACCACAGACTACCCGGAAATCAACTT
B37: Table S2 A row 1268 (dsDNA)
DNA 1: GAATGGCGGATGTGGCTGGGGAGAGAAAGCCGCAGA
DNA 2: TCTGCGGCTTTCTCTCCCCAGCCACATCCGCCATTC
B38: Table S2 A row 1363 (dsDNA)
DNA 1: ATGAGCTATTTCCTGCCTTGTGGTCAGAGCCAGACT
DNA 2: AGTCTGGCTCTGACCACAAGGCAGGAAATAGCTCAT
B39: Table S2 A row 1530 (dsDNA)
DNA 1: CCAGGCGGAAGCGGCCGGGAGTAGCGCTGCGGTTGG
DNA 2: CCAACCGCAGCGCTACTCCCGGCCGCTTCCGCCTGG
B40: Table S2 A row 274 (dsDNA)
DNA 1: ATGCCTTCTTCCAGAGGATGTGGTCGCTACTAGTGG
DNA 2: CCACTAGTAGCGACCACATCCTCTGGAAGAAGGCAT
B41: Table S2 A row 1241 (dsDNA)
DNA 1: AAGAAAAAGGGAGGATGTGGTTTAGCAAAAGCACTG
DNA 2: CAGTGCTTTTGCTAAACCACATCCTCCCTTTTTCTT
B42: Table S2 A row 552 (dsDNA)
DNA 1: AACCATTACAGGATGTGAGATTCAAACCACTAACAG
DNA 2: CTGTTAGTGGTTTGAATCTCACATCCTGTAATGGTT

Sequence of ETS1:RUNX1 (P14921 whole entry, chain 1 of 2): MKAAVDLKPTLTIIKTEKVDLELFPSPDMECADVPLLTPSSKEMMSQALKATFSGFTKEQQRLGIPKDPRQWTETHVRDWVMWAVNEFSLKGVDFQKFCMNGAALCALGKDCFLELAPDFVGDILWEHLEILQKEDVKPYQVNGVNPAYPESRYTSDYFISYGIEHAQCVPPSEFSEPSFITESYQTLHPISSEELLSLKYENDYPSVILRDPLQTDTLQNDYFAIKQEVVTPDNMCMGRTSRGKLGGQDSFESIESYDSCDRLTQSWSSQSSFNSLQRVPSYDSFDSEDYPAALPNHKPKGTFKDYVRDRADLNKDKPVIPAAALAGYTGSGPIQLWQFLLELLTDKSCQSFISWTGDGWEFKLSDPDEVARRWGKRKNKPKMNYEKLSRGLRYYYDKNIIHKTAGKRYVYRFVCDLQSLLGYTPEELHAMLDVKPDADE
Sequence of ETS1:RUNX1 (Q01196 whole entry, chain 2 of 2): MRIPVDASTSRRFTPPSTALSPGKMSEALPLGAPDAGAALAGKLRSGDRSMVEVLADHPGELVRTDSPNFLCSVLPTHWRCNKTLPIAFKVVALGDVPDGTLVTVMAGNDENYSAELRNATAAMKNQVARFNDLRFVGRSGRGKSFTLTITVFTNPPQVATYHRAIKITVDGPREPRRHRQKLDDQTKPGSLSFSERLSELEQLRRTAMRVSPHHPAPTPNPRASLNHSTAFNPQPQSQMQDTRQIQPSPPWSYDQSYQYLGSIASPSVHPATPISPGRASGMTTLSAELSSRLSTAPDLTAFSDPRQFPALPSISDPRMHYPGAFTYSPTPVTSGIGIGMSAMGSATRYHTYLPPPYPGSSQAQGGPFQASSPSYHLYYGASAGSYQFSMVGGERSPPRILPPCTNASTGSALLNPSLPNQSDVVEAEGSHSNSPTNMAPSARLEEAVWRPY

The data set addresses ETS1:RUNX1 (Homo sapiens, UniProt P14921;Q01196 full;full). As to the kind of experiment: gcPBM; 1 nM ETS1 + 25 nM RUNX1, anti-ETS1 signal, normalised. The note with it: tags: N-terminal GST (pDEST15), kept (PMC6008103); copies: 1;1; label: surface-attached array probe.
With B1, the binding signal is 4460 PBM fluorescence, median of replicate spots.

Consider B2, for which the binding signal is 3570 PBM fluorescence, median of replicate spots.

On to B3, for which the binding signal was 5150 PBM fluorescence, median of replicate spots.

For the molecule B4, the binding signal is 5120 PBM fluorescence, median of replicate spots.

B5: the binding signal was 3620 PBM fluorescence, median of replicate spots.

As to B6, the binding signal was 5960 PBM fluorescence, median of replicate spots.

As for B7, the binding signal was 4490 PBM fluorescence, median of replicate spots.

As to B8, the binding signal was 3630 PBM fluorescence, median of replicate spots.

As to B9, the binding signal is 4240 PBM fluorescence, median of replicate spots.

Consider B10, for which the binding signal is 4350 PBM fluorescence, median of replicate spots.

Take B11: the binding signal was 4440 PBM fluorescence, median of replicate spots.

As to B12, the binding signal is 5630 PBM fluorescence, median of replicate spots.

Consider B13, for which the binding signal is 4400 PBM fluorescence, median of replicate spots.

On to B14, for which the binding signal is 5000 PBM fluorescence, median of replicate spots.

Turning to B15, the binding signal is 5540 PBM fluorescence, median of replicate spots.

In the case of B16, the binding signal was 3710 PBM fluorescence, median of replicate spots.

As for B17, the binding signal is 4920 PBM fluorescence, median of replicate spots.

For B18, the binding signal was 4990 PBM fluorescence, median of replicate spots.

On to B19, for which the binding signal was 5250 PBM fluorescence, median of replicate spots.

Consider B20, for which the binding signal is 4940 PBM fluorescence, median of replicate spots.

On to B21, for which the binding signal is 4310 PBM fluorescence, median of replicate spots.

On to B22, for which the binding signal was 5400 PBM fluorescence, median of replicate spots.

For B23, the binding signal was 5690 PBM fluorescence, median of replicate spots.

In the case of B24, the binding signal was 4760 PBM fluorescence, median of replicate spots.

B25: the binding signal was 3840 PBM fluorescence, median of replicate spots.

As to B26, the binding signal was 4590 PBM fluorescence, median of replicate spots.

Regarding B27, the binding signal is 5210 PBM fluorescence, median of replicate spots.

Turning to B28, the binding signal was 4160 PBM fluorescence, median of replicate spots.

As to B29, the binding signal was 5900 PBM fluorescence, median of replicate spots.

For B30, the binding signal was 4870 PBM fluorescence, median of replicate spots.

In the case of B31, the binding signal was 3930 PBM fluorescence, median of replicate spots.

As to B32, the binding signal was 5300 PBM fluorescence, median of replicate spots.

For B33, the binding signal was 4040 PBM fluorescence, median of replicate spots.

Consider B34, for which the binding signal was 4710 PBM fluorescence, median of replicate spots.

As for B35, the binding signal is 5370 PBM fluorescence, median of replicate spots.

On to B36, for which the binding signal was 4110 PBM fluorescence, median of replicate spots.

Regarding B37, the binding signal was 4780 PBM fluorescence, median of replicate spots.

On to B38, for which the binding signal is 5600 PBM fluorescence, median of replicate spots.

Regarding B39, the binding signal was 5640 PBM fluorescence, median of replicate spots.

Take B40: the binding signal is 4270 PBM fluorescence, median of replicate spots.

Take B41: the binding signal was 5810 PBM fluorescence, median of replicate spots.

As to B42, the binding signal is 4190 PBM fluorescence, median of replicate spots.

For the origin of these results see article PMC10681739, “High-throughput data and modeling reveal insights into the mechanisms of cooperative DNA-binding by transcription factor proteins”.
